Reference: publication PMC9486512 (Zoological Research, 2022)
Like-named read-outs stand apart in the source and are kept apart here. Ends that are not written are not given here.

Tests used:
[1] = biological target: human Nav1.7 (hNav1.7) channel (Homo sapiens, UniProt Q15858); assay: Whole-cell patch-clamp inhibition of hNav1.7 currents; format: cell-based
[2] = biological target: human voltage-gated sodium ion channel Nav1.7 (human)
[3] = biological target: human voltage-gated sodium ion channel Nav1.7 (human); remark: listed apart in the source
[4] = biological target: human voltage-gated sodium ion channel Nav1.7 (human); remark: listed apart in the source

Chain of human voltage-gated sodium ion channel Nav1.7 (human) (Q15858 whole entry): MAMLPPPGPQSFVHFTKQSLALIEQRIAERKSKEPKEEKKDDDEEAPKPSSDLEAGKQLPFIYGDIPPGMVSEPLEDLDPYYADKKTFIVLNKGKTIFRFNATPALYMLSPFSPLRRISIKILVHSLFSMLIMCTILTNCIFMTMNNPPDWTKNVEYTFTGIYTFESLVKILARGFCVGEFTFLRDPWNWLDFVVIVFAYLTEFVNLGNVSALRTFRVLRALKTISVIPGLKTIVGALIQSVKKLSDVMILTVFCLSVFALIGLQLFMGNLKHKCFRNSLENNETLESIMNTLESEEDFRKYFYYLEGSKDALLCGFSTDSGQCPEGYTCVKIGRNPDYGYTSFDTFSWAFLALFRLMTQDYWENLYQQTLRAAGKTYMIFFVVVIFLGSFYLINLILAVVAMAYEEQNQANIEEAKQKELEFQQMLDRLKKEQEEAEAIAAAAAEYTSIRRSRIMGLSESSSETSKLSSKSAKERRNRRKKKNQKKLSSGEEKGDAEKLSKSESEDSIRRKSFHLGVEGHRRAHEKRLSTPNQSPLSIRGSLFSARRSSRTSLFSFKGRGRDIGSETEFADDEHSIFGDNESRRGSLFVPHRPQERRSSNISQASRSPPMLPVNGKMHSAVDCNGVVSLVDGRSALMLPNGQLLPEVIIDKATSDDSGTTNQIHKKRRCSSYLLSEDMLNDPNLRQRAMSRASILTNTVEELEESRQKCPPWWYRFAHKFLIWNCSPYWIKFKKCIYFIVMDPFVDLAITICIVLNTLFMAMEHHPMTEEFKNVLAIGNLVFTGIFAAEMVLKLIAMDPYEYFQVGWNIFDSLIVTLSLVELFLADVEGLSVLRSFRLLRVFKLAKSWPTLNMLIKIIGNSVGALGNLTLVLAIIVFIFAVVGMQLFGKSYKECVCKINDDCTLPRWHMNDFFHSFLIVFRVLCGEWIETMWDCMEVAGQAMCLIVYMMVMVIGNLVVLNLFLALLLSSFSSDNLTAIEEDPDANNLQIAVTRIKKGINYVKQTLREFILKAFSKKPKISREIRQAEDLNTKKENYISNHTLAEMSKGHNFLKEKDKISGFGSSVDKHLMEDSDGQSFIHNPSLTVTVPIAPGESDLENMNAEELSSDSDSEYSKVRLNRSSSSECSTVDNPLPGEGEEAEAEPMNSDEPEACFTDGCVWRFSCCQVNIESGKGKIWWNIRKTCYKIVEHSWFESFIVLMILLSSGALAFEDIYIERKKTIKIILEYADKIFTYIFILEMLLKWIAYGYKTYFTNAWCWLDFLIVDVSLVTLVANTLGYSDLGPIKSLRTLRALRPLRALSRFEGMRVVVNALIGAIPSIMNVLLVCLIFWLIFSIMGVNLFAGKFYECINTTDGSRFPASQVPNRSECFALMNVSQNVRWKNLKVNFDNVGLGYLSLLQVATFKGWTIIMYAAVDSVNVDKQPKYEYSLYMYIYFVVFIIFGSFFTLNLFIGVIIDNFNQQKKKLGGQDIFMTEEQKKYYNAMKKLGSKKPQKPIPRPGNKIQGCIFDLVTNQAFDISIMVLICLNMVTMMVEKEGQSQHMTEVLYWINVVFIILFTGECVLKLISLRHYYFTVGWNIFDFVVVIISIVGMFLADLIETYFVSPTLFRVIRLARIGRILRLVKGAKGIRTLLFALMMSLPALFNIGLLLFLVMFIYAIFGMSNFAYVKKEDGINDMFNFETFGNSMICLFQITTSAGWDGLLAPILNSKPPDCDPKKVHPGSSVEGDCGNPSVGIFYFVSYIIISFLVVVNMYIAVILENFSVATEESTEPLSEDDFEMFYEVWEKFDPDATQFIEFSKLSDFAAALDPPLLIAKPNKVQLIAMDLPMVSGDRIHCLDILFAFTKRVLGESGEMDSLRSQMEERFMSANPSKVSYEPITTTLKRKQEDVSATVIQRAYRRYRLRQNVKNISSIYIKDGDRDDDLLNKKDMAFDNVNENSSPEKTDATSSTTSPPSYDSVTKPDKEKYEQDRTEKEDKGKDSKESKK
Chain of human Nav1.7 (hNav1.7) channel (Q15858 whole entry): as above

Molecule | IC50 of inhibition of hNav1.7 currents, whole-cell patch clamp, HEK293T [2] [µM] | also measured
K18A: K18A mutant of Ca2a (ACLGFGEKCNPSNDKCCASSSLVCSQKHKWCKYDL; ends and bridges not checked; cysteine pairing not given here) [Peptide K18A] | – | inhibitory activity against Nav1.7 (in words) ([1]; compared to Ca2a, WT hNav1.7 in HEK293T): retained most of its inhibitory activity
W30A: W30A mutant of Ca2a (ACLGFGEKCNPSNDKCCKSSSLVCSQKHKACKYDL; ends and bridges not checked; cysteine pairing not given here) [Peptide W30A] | – | fold change in IC50 / affinity for Nav1.7 compared to WT Ca2a ([1]; ratio of mutant IC50 to WT peptide IC50, hNav1.7 in HEK293T): 20 fold
CLGFGEKCNPDCCKLVCSQKWCKY [truncated peptide T12 (from Ca2a)] | > 50 | –
CLGFGEKCNDKCCKSSSVCSQKHKWCKY [truncated peptide T6 (from Ca2a)] | > 100 | –
CLGFGEKCNDKCCKSSSLCSQKHKWCKY [truncated peptide T5 (from Ca2a)] | > 100 | –
CLGFGEKCNPSDKCCKSSSVCSQKHKWCKY [truncated peptide T7 (from Ca2a)] | > 100 | –
ACLGFGEKCNPSNDKCCKSSSLVCSQAHKWCKYDL [Ca2a K27A] | – | IC50 of inhibition of hNav1.7 currents, whole-cell patch clamp, HEK293T [3]: 4.07 µM
ACLGFGEKCNPSNDKCCKSSSLVCSQKHKKCKYDL [Ca2a W30K] | – | IC50 of inhibition of hNav1.7 currents, whole-cell patch clamp, HEK293T [4]: > 20 µM
ACLGFGEKCNPSNDKCCKSSSLVCSQKRKWCKYDL [Ca2a H28R] | – | IC50 of inhibition of hNav1.7 currents, whole-cell patch clamp, HEK293T [4]: 14.9 µM
ACLGFGEKCNPSNDKCCKSSSLVCSQKHKWCKKDL [Ca2a Y33K] | – | IC50 of inhibition of hNav1.7 currents, whole-cell patch clamp, HEK293T [4]: > 20 µM
ACLGKGEKCNPSNDKCCKSSSLVCSQKHKWCKYDL [Ca2a F5K] | – | IC50 of inhibition of hNav1.7 currents, whole-cell patch clamp, HEK293T [4]: > 20 µM
ACLGFGEKCNPSNDKCCKSSSLVCSQKHKWCAYDL [Ca2a K32A] | – | IC50 of inhibition of hNav1.7 currents, whole-cell patch clamp, HEK293T [3]: > 30 µM
ACLGFGEKCNPSNDKCCKSSSLVCSQKKKWCKYDL [Ca2a H28K] | – | IC50 of inhibition of hNav1.7 currents, whole-cell patch clamp, HEK293T [4]: > 20 µM
CLGFGEKCPSNDKCCSSSLVCSQKHKWCKY [truncated peptide T8 (from Ca2a)] | > 100 | –
CLGFGEKCCCKSSSLVCSQKHKWCKY [truncated peptide T1 (from Ca2a)] | 14.7 | –
CLGFGEKCNNDKCCKSLVCQKHKWCKY [truncated peptide T3 (from Ca2a)] | 39.6 | –
CLGFGEKCNPSKCCKSLVCQKHKWCKY [truncated peptide T2 (from Ca2a)] | 16.5 | –
CLGFGEKCNDKCCKLVCSQHKWCKY [truncated peptide T13 (from Ca2a)] | 8.89 | –
CLGFGEKCNPSNDCCKSSSLVCSQKHKWCKY [truncated peptide T9 (from Ca2a)] | 67.3 | –
CLGFGEKCNPSDKCCKSSSLVCSQKHKWCKY [truncated peptide T11 (from Ca2a)] | 49.2 | –
CLGFGEKCNPSNKCCKSSSLVCSQKHKWCKY [truncated peptide T10 (from Ca2a)] | 53.5 | –
CLGFGEKCNDKCCKSSSCSQKHKWCKY [truncated peptide T4 (from Ca2a)] | > 100 | –
